These results are taken from the supplement of paper PMC7877785.

The data set in a line: self-splicing fitness, log relative to wild type (ln ratio); higher = more splicing; Tetrahymena group I intron in knt gene, E. coli kanamycin selection, DiMSum; sequences stand for … in CUCUCU…GGAGGGAAAAGUUAUCAGGCAUGCACCUGGUAGCUAGUCUUUAAACCAAUAGAUUGCAUCGGUUUAAAAGGCAAGACCGUCAAAUUGCGGGAAAGGGGUCAACAGCCGUUCAGUACCAAGUCUCAGGGGAAACUUUGAGAUGGCCUUGCAAAGGGUAUGGUAAUAAGCUGACGGACAUGGUCCUAACCACGCAGCCAAGUCCUAAGUCAACAGAUCUUCUGUUGAUAUGGAUGCAGUUCACAGACUAAAUGUCGGUCGGGGAAGAUGUAUUCUUCUCAUAAGAUAUAGUCGGACCUCUCCUUAAUGGGAGCUAGCGGAUGAAGUGAUGCAACACUGGAGCCGCUGGGAACUAAUUUGUAUGCGAAAGUAUAUUGAUUAGUUUUGGAGUACUCGUGGUCG
In outline: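 DiMSum derived fitness as the error-weighted combination of fold changes across replicates, kanamycin versus no kanamycin, normalised to wild type. E. coli BL21(DE3) held the library, which randomised all eight P1ex-region intron nucleotides within the knt kanamycin-resistance gene on pET-22b(+). Six replicate transformations grew overnight at 37°C or 30°C on LB agar with or without 25 μg/mL kanamycin, also containing 100 μg/mL carbenicillin, 50 μM IPTG and 0.2% rhamnose, and pooled colonies were amplicon-sequenced on an Illumina HiSeq 2500.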

± gives the uncertainty stated by the source.

On to CUCUAGCAAUAUUACGCCGC, for which the “self-splicing fitness (ln)” value (37 °C) is -3.15 ± 0.43.

For the sequence CAUCAGCAAUAUUACGUUAA, the “self-splicing fitness (ln)” value is, setting by setting: (30 °C) -2.79 ± 0.16; (37 °C) -1.85 ± 0.17.

As to ACACAGCAAUAUUACGCACU, the “self-splicing fitness (ln)” value is -0.282 ± 0.045 (30 °C) and 0.182 ± 0.058 (37 °C). For UUGAAGCAAUAUUACGGAGU, the “self-splicing fitness (ln)” value (30 °C) is -2.51 ± 0.17 and the “self-splicing fitness (ln)” value (37 °C) is -1.83 ± 0.18. For UGAUAGCAAUAUUACGCCGG, the “self-splicing fitness (ln)” value is, setting by setting: (30 °C) -1.5 ± 0.22; (37 °C) 0.564 ± 0.23.

For the sequence UGAAAGCAAUAUUACGAUCC, the “self-splicing fitness (ln)” value by setting is: (30 °C) -0.303 ± 0.14; (37 °C) 0.92 ± 0.18. With GUCCAGCAAUAUUACGAUUC, the “self-splicing fitness (ln)” value by setting is: (30 °C) -0.315 ± 0.055; (37 °C) 0.0606 ± 0.075. As to GAAUAGCAAUAUUACGCGUU, the “self-splicing fitness (ln)” value was -3.4 ± 0.24 (30 °C) and -1.37 ± 0.15 (37 °C). On the same counts, the results for CAGUAGCAAUAUUACGACCC are -3.52 ± 0.44 and -0.507 ± 0.34. The like results for CGUGAGCAAUAUUACGUGAG were, in that order, -0.77 ± 0.072 and -1.61 ± 0.097.

For the sequence GAUUAGCAAUAUUACGAAUC, the “self-splicing fitness (ln)” value is, setting by setting: (30 °C) -4.13 ± 0.37; (37 °C) -1.82 ± 0.31. The like results for AAUAAGCAAUAUUACGCUUC were, in that order, -3.51 ± 0.23 and -2.59 ± 0.23. On the same counts, the results for UUUUAGCAAUAUUACGUUGG are -2.07 ± 0.21 and -2.23 ± 0.32. On the same counts, the results for CACGAGCAAUAUUACGUUGG are -3.11 ± 0.16 and -1.79 ± 0.14. For UCUGAGCAAUAUUACGCGAC, for the setting “37 °C”, the “self-splicing fitness (ln)” value was -2.85 ± 0.48.

Take CCGGAGCAAUAUUACGAUCA: the “self-splicing fitness (ln)” value (30 °C) was -3.1 ± 0.42 and the “self-splicing fitness (ln)” value (37 °C) is -2.63 ± 0.44. Regarding UUAGAGCAAUAUUACGGGAG, the “self-splicing fitness (ln)” value was -2.32 ± 0.15 (30 °C) and -1.32 ± 0.18 (37 °C).

As for UUGAAGCAAUAUUACGGUUA, the “self-splicing fitness (ln)” value (30 °C) was -0.344 ± 0.066 and the “self-splicing fitness (ln)” value (37 °C) was 0.471 ± 0.086.

UGGGAGCAAUAUUACGCUGC: for the setting “37 °C”, the “self-splicing fitness (ln)” value was -1.15 ± 0.28. In the case of UCAGAGCAAUAUUACGUAGU, the “self-splicing fitness (ln)” value runs as follows: (30 °C) -3.58 ± 0.43; (37 °C) -2.88 ± 0.35. The like results for AGGUAGCAAUAUUACGACCU were, in that order, -3.04 ± 0.031 and -2.42 ± 0.049. Turning to UUGGAGCAAUAUUACGGGCU, the “self-splicing fitness (ln)” value (37 °C) is -2.95 ± 0.34. Take CUCUAGCAAUAUUACGGGAU: the “self-splicing fitness (ln)” value by setting is: (30 °C) -2.37 ± 0.11; (37 °C) -3.45 ± 0.16. On the same counts, the results for CUCGAGCAAUAUUACGUGAC are -2.55 ± 0.17 and -1.73 ± 0.16. Turning to CGCCAGCAAUAUUACGUGCA, the “self-splicing fitness (ln)” value (30 °C) was -0.897 ± 0.056 and the “self-splicing fitness (ln)” value (37 °C) came out at 0.212 ± 0.085. In the case of UCGAAGCAAUAUUACGAAUG, the “self-splicing fitness (ln)” value (30 °C) is -2.95 ± 0.17 and the “self-splicing fitness (ln)” value (37 °C) was -1.84 ± 0.19. For UUGUAGCAAUAUUACGUGUC, the “self-splicing fitness (ln)” value (30 °C) is -3.17 ± 0.15. For UCCAAGCAAUAUUACGGUCG, the “self-splicing fitness (ln)” value was -2.37 ± 0.097 (30 °C) and -0.886 ± 0.099 (37 °C). Take GUGUAGCAAUAUUACGAUUU: the “self-splicing fitness (ln)” value is -1.98 ± 0.19 (30 °C) and 0.0419 ± 0.25 (37 °C).

For the sequence UAUUAGCAAUAUUACGGAAU, the “self-splicing fitness (ln)” value was -4.02 ± 0.33 (30 °C) and -0.66 ± 0.19 (37 °C). On the same counts, the results for ACCAAGCAAUAUUACGCCGC are -3.04 ± 0.24 and -0.837 ± 0.18.

Regarding UGUAAGCAAUAUUACGCGCU, the “self-splicing fitness (ln)” value by setting is: (30 °C) -0.925 ± 0.078; (37 °C) -0.315 ± 0.11. With GGAUAGCAAUAUUACGAUUG, the “self-splicing fitness (ln)” value reads like this: (30 °C) -1.55 ± 0.15; (37 °C) -1.44 ± 0.24. The like results for GUGGAGCAAUAUUACGUAGU were, in that order, -2.93 ± 0.24 and -0.993 ± 0.27.

With UGGUAGCAAUAUUACGGCGU, the “self-splicing fitness (ln)” value by setting is: (30 °C) -1.44 ± 0.12; (37 °C) -0.737 ± 0.12. In the case of AUACAGCAAUAUUACGAGGG, the “self-splicing fitness (ln)” value by setting is: (30 °C) -3.68 ± 0.2; (37 °C) -2.21 ± 0.19. On the same counts, the results for AAGGAGCAAUAUUACGACGU are -1.88 ± 0.13 and -0.122 ± 0.14. The like results for CCGGAGCAAUAUUACGGUCU were, in that order, -2.42 ± 0.22 and -2.54 ± 0.38. As for UGUCAGCAAUAUUACGAGUC, the “self-splicing fitness (ln)” value (30 °C) is -3.49 ± 0.26 and the “self-splicing fitness (ln)” value (37 °C) is -2.78 ± 0.25.
